Measurements taken from publication PMC6555819, “Comprehensive study of nuclear receptor DNA binding provides a revised framework for understanding receptor specificity”.

Tests used:
Experiment in all cases: no ligand; PBM; 270 nM : 90 nM RXRa; PBS pH 7.4, 2% milk, 0.02% Triton X-100, 1 mM DTT, BSA, 0.4 mg/ml salmon testes DNA
LXRb:RXRa = LXRb:RXRa (Homo sapiens, UniProt P55055;P19793 full;full); details: tags: His kept;His cleaved; copies: 1;1; label: surface-attached array probe
How it was run: (§1)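 Ligand-free nuclear receptor dimers were applied to custom Agilent 4×180K protein-binding microarrays whose double-stranded probes carried direct-repeat seeds, single-nucleotide variants, half-site ablations and random human genomic background sequences in 34-nt variable regions. Incubation lasted 1 h. Binding z-scores were computed against the random background probes from regression-normalized fluorescence.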

FXR:RXRa = FXR:RXRa (Homo sapiens, UniProt Q96RI1;P19793 full;full); details: tags: His kept;His cleaved; copies: 1;1; label: surface-attached array probe
How it was run: as §1

RARg:RXRa = RARg:RXRa (Homo sapiens, UniProt P13631;P19793 full;full); details: tags: His kept;His cleaved; copies: 1;1; label: surface-attached array probe
How it was run: as §1

PPARa:RXRa = PPARa:RXRa (Homo sapiens, UniProt Q07869;P19793 full;full); details: tags: GST kept;His cleaved; copies: 1;1; label: surface-attached array probe
How it was run: as §1

PPARa:RXRa, sequence (Q07869 whole entry, chain 1 of 2): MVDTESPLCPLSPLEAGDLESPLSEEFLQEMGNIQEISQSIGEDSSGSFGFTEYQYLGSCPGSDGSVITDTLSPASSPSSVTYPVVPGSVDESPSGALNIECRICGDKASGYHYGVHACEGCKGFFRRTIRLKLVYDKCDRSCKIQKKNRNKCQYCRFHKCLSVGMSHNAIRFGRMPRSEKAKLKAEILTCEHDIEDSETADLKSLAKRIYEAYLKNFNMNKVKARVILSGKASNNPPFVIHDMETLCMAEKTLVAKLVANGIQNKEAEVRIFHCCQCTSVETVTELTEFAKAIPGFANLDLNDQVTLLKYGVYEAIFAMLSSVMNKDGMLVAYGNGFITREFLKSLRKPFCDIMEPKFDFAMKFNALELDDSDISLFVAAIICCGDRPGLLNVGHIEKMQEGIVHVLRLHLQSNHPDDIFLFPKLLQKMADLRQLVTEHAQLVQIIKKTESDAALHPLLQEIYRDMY
PPARa:RXRa, sequence (P19793 whole entry, chain 2 of 2): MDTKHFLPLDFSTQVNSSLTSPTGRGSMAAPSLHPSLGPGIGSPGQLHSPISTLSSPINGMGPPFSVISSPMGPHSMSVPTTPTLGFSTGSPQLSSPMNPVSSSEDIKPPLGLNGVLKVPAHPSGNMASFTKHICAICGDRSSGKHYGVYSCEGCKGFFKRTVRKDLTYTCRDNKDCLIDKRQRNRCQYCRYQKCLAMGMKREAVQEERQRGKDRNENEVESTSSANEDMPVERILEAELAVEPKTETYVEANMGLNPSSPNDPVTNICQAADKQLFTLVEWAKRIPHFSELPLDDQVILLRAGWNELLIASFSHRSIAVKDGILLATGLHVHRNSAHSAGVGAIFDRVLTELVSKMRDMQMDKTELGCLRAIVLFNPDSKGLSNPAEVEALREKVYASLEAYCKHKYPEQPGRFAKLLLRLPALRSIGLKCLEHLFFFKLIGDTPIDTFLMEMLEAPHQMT
RARg:RXRa, sequence (P13631 whole entry, chain 1 of 2): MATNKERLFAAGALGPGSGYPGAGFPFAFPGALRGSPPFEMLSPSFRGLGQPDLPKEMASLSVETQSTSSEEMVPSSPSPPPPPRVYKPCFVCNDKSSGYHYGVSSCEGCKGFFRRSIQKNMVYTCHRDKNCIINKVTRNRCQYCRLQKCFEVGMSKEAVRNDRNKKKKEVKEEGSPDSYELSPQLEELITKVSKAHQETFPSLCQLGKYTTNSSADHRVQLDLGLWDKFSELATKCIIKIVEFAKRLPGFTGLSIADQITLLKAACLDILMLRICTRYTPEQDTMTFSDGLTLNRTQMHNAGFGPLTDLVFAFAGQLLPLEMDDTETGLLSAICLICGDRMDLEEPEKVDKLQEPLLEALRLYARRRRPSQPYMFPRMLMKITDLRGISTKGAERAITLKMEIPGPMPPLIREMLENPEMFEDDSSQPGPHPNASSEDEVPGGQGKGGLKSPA
RARg:RXRa, sequence (P19793 whole entry, chain 2 of 2): as the sequence (P19793 whole entry, chain 2 of 2) above
LXRb:RXRa, sequence (P55055 whole entry, chain 1 of 2): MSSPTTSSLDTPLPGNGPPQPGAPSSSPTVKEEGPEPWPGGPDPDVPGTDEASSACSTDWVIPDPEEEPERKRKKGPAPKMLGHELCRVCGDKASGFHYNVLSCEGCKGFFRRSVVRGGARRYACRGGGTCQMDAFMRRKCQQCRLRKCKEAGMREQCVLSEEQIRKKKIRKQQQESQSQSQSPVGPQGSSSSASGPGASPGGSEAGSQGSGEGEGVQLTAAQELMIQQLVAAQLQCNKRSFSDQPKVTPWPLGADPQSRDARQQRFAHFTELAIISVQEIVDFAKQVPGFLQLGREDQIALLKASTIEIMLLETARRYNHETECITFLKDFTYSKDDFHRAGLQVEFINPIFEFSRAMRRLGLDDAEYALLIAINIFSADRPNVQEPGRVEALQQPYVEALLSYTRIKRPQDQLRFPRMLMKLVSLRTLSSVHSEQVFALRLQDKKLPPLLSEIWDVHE
LXRb:RXRa, sequence (P19793 whole entry, chain 2 of 2): as the sequence (P19793 whole entry, chain 2 of 2) above
FXR:RXRa, sequence (Q96RI1 whole entry, chain 1 of 2): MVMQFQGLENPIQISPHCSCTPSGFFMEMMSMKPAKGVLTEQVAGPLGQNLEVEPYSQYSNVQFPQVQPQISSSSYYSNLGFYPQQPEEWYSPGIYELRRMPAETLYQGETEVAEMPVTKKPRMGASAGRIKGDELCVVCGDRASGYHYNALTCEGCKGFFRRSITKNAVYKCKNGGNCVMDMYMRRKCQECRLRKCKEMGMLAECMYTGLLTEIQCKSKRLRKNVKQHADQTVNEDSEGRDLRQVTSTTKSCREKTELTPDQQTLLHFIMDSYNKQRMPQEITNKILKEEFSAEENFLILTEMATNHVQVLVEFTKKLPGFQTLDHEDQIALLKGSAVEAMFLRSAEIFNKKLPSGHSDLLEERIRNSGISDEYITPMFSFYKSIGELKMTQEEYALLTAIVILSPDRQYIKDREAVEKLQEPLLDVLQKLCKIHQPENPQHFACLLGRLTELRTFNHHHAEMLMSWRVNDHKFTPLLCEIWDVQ
FXR:RXRa, sequence (P19793 whole entry, chain 2 of 2): as the sequence (P19793 whole entry, chain 2 of 2) above

Binder | binding signal (LXRb:RXRa) | binding signal (FXR:RXRa) | binding signal (RARg:RXRa) | binding signal (PPARa:RXRa)
NRC3_random_hg19_182_o1 (dsDNA) DNA 1: GCGCAGGAGACTCACTTGTGCATGCAGGGTTGAGGCGCGATTGACAGCGTAGAATGAAGG DNA 2: CCTTCATTCTACGCTGTCAATCGCGCCTCAACCCTGCATGCACAAGTGAGTCTCCTGCGC | -1.08 PBM z-score against 500 random probes |  |  | 
NRC3_random_hg19_495_o1 (dsDNA) DNA 1: GCGCACCATCTGTGAGAAAGTAGCCCTTCACCAAACGCGATTGACAGCGTAGAATGAAGG DNA 2: CCTTCATTCTACGCTGTCAATCGCGTTTGGTGAAGGGCTACTTTCTCACAGATGGTGCGC | -0.24 PBM z-score against 500 random probes | -0.51 PBM z-score against 500 random probes |  | 
NRC3_wobSeed27_DR1_C20A_o1 (dsDNA) DNA 1: GCACTCGGAGGACAAAGGTAAGAGCTACGCCAGTGAGCGATTGACAGCGTAGAATGAAGG DNA 2: CCTTCATTCTACGCTGTCAATCGCTCACTGGCGTAGCTCTTACCTTTGTCCTCCGAGTGC | -0.49 PBM z-score against 500 random probes |  |  | 
NRC3_random_hg19_65_o1 (dsDNA) DNA 1: GCATGGTGATGAAAGCAAAGGAGTAATGTTTCTGTGGCGATTGACAGCGTAGAATGAAGG DNA 2: CCTTCATTCTACGCTGTCAATCGCCACAGAAACATTACTCCTTTGCTTTCATCACCATGC | 0.22 PBM z-score against 500 random probes |  |  | 
NRC3_random_hg19_472_o1 (dsDNA) DNA 1: GCTGATGGGCTTCAAGTTGCTAACCCAGGAAATGGAGCGATTGACAGCGTAGAATGAAGG DNA 2: CCTTCATTCTACGCTGTCAATCGCTCCATTTCCTGGGTTAGCAACTTGAAGCCCATCAGC | -0.26 PBM z-score against 500 random probes |  |  | 
NRC3_wobSeed29_DR1_G17A_o1 (dsDNA) DNA 1: GCGCTTACGGGTCAAAAGTTATAGCATGAATAGAATGCGATTGACAGCGTAGAATGAAGG DNA 2: CCTTCATTCTACGCTGTCAATCGCATTCTATTCATGCTATAACTTTTGACCCGTAAGCGC | 3.65 PBM z-score against 500 random probes |  | 4.11 PBM z-score against 500 random probes | 
NRC3_random_hg19_201_o1 (dsDNA) DNA 1: GCCAAGGCTACCAAAGCAGTTTCTGGGCATGCTGAGGCGATTGACAGCGTAGAATGAAGG DNA 2: CCTTCATTCTACGCTGTCAATCGCCTCAGCATGCCCAGAAACTGCTTTGGTAGCCTTGGC | -0.95 PBM z-score against 500 random probes |  |  | -0.55 PBM z-score against 500 random probes
NRC3_random_hg19_352_o1 (dsDNA) DNA 1: GCGAGATGCAGCCAACCTGTAGAGATCCTGTGGAGAGCGATTGACAGCGTAGAATGAAGG DNA 2: CCTTCATTCTACGCTGTCAATCGCTCTCCACAGGATCTCTACAGGTTGGCTGCATCTCGC | -0.67 PBM z-score against 500 random probes | -0.39 PBM z-score against 500 random probes | -0.52 PBM z-score against 500 random probes | -0.6 PBM z-score against 500 random probes
NRC3_random_hg19_97_o1 (dsDNA) DNA 1: GCAAAGGCCTGAGAACCAGGACCTCCAGTGTCCTCAGCGATTGACAGCGTAGAATGAAGG DNA 2: CCTTCATTCTACGCTGTCAATCGCTGAGGACACTGGAGGTCCTGGTTCTCAGGCCTTTGC | -0.68 PBM z-score against 500 random probes |  |  | 
NRC3_random_hg19_71_o1 (dsDNA) DNA 1: GCCATGTCACCTCCCTGAGGTGCAGTTTGCTTCAAGGCGATTGACAGCGTAGAATGAAGG DNA 2: CCTTCATTCTACGCTGTCAATCGCCTTGAAGCAAACTGCACCTCAGGGAGGTGACATGGC | 0.34 PBM z-score against 500 random probes |  |  | 
NRC3_random_hg19_46_o1 (dsDNA) DNA 1: GCAGTAATGCCAATGTCATGATGTGGTCCAGGAATGGCGATTGACAGCGTAGAATGAAGG DNA 2: CCTTCATTCTACGCTGTCAATCGCCATTCCTGGACCACATCATGACATTGGCATTACTGC | -0.76 PBM z-score against 500 random probes |  |  | 
NRC3_random_hg19_86_o1 (dsDNA) DNA 1: GCAAACAAGGAGGAGAGGTGTTCTGGAGAACTGCTTGCGATTGACAGCGTAGAATGAAGG DNA 2: CCTTCATTCTACGCTGTCAATCGCAAGCAGTTCTCCAGAACACCTCTCCTCCTTGTTTGC | 0.18 PBM z-score against 500 random probes |  |  | 
NRC3_random_hg19_193_o1 (dsDNA) DNA 1: GCTGGAAGATGAAGAAGAACTATTGCTCGATGGAGAGCGATTGACAGCGTAGAATGAAGG DNA 2: CCTTCATTCTACGCTGTCAATCGCTCTCCATCGAGCAATAGTTCTTCTTCATCTTCCAGC | -0.54 PBM z-score against 500 random probes |  |  | 
NRC3_wobSeed74_DR3_T21G_o1 (dsDNA) DNA 1: GCTCTAGTTGGTCACGGAGGGCACACACGACGGGTAGCGATTGACAGCGTAGAATGAAGG DNA 2: CCTTCATTCTACGCTGTCAATCGCTACCCGTCGTGTGTGCCCTCCGTGACCAACTAGAGC | 0.5 PBM z-score against 500 random probes | 0.34 PBM z-score against 500 random probes |  | 
NRC3_random_hg19_262_o1 (dsDNA) DNA 1: GCGACTAATGCTTACCTTTAGAAAGTGCAAGTGAATGCGATTGACAGCGTAGAATGAAGG DNA 2: CCTTCATTCTACGCTGTCAATCGCATTCACTTGCACTTTCTAAAGGTAAGCATTAGTCGC | 0.24 PBM z-score against 500 random probes | 0.19 PBM z-score against 500 random probes |  | 0.36 PBM z-score against 500 random probes
NRC3_random_hg19_122_o1 (dsDNA) DNA 1: GCTGGCAATGGCTGGACCACTCCAAGAACTGTGTGGGCGATTGACAGCGTAGAATGAAGG DNA 2: CCTTCATTCTACGCTGTCAATCGCCCACACAGTTCTTGGAGTGGTCCAGCCATTGCCAGC | -0.85 PBM z-score against 500 random probes |  |  | 
NRC3_random_hg19_151_o1 (dsDNA) DNA 1: GCCCCAATCTACTAGAAACACTTCCTGGAGAACCCGGCGATTGACAGCGTAGAATGAAGG DNA 2: CCTTCATTCTACGCTGTCAATCGCCGGGTTCTCCAGGAAGTGTTTCTAGTAGATTGGGGC | 0.38 PBM z-score against 500 random probes |  | -0.01 PBM z-score against 500 random probes | 
NRC3_random_hg19_100_o1 (dsDNA) DNA 1: GCGAGTTTGAGACCAGCCTGGCCAACATGGCAAGAGGCGATTGACAGCGTAGAATGAAGG DNA 2: CCTTCATTCTACGCTGTCAATCGCCTCTTGCCATGTTGGCCAGGCTGGTCTCAAACTCGC | -1.11 PBM z-score against 500 random probes | -0.7 PBM z-score against 500 random probes |  | 
NRC3_random_hg19_477_o1 (dsDNA) DNA 1: GCAACAAACTTCCTTGCTCTAGTTCATCAGCAATGAGCGATTGACAGCGTAGAATGAAGG DNA 2: CCTTCATTCTACGCTGTCAATCGCTCATTGCTGATGAACTAGAGCAAGGAAGTTTGTTGC | 0.49 PBM z-score against 500 random probes |  |  | 
NRC3_random_hg19_39_o1 (dsDNA) DNA 1: GCGGGCAACTCGTTCGACTCAGGGAGCTATGGGTAGGCGATTGACAGCGTAGAATGAAGG DNA 2: CCTTCATTCTACGCTGTCAATCGCCTACCCATAGCTCCCTGAGTCGAACGAGTTGCCCGC | -0.61 PBM z-score against 500 random probes |  |  | 
NRC3_random_hg19_405_o1 (dsDNA) DNA 1: GCAGCGCACCAGCATGGCACATGTATACATATGTAAGCGATTGACAGCGTAGAATGAAGG DNA 2: CCTTCATTCTACGCTGTCAATCGCTTACATATGTATACATGTGCCATGCTGGTGCGCTGC | -0.44 PBM z-score against 500 random probes |  |  | 
NRC3_random_hg19_110_o1 (dsDNA) DNA 1: GCTGCTGATTCATAGCTTGTAACTTCGTGTTCTTTAGCGATTGACAGCGTAGAATGAAGG DNA 2: CCTTCATTCTACGCTGTCAATCGCTAAAGAACACGAAGTTACAAGCTATGAATCAGCAGC | -0.27 PBM z-score against 500 random probes |  | -0.76 PBM z-score against 500 random probes | 
NRC3_random_hg19_61_o1 (dsDNA) DNA 1: GCGCAGAGGTTGCAATGAGCCAAGATTGTACCACTGGCGATTGACAGCGTAGAATGAAGG DNA 2: CCTTCATTCTACGCTGTCAATCGCCAGTGGTACAATCTTGGCTCATTGCAACCTCTGCGC | -0.15 PBM z-score against 500 random probes |  |  | 
